Reference: patent publication US20200024330A1

How the values were obtained:
Assay in all cases: cell-based or functional assay
[1] = target: HIV-1 92UG005 envelope glycoprotein (Env) on pseudovirus (HIV-1)
[2] = target: HIV-1 94UG114 envelope glycoprotein (Env) on pseudovirus (HIV-1)
[3] = target: HIV-1 Env of isolate MGRM-AE-003 (HIV-1)
[4] = target: HIV-1 Env of isolate MGRM-D-021 (clade D) (HIV-1)
[5] = target: HIV-1 Env of isolate MGRM-D-026 (clade D) (HIV-1)
[6] = target: HIV-1 Env of isolate MGRM-G-016 (clade G pseudovirus) (HIV-1)
[7] = target: HIV-1 Env of pseudovirus MGRM-Chronic-B-003, clade B (HIV-1)
[8] = target: HIV-1 Env of pseudovirus MGRM-Chronic-B-008, clade B (HIV-1)
[9] = target: HIV-1 Env of pseudovirus THR0.18 (Acute), clade B (HIV-1)
[10] = target: HIV-1 Env of pseudovirus VLGCB3, clade B (HIV-1)
[11] = target: HIV-1 LAVI_C3 Env (HIV-1)
[12] = target: HIV-1 MGRM-A-001 envelope glycoprotein (Env) (HIV-1)
[13] = target: HIV-1 MGRM-C-014 Env (HIV-1)
[14] = target: HIV-1 MGRM-C-020 Env (HIV-1)
[15] = target: HIV-1 MGRM-C-022 Env (HIV-1)
[16] = target: HIV-1 MGRM-F1-012 Env (pseudovirus) (HIV-1)
[17] = target: HIV-1 NL43 envelope protein (Env) on pseudovirus (HIV-1)
[18] = target: HIV-1 Env of isolate APV-13 (pseudovirus) (HIV-1 isolate APV-13, subtype B)
[19] = target: HIV-1 Env of isolate CMU02 (CRF01_AE), on pseudovirus (HIV-1)
[20] = target: HIV-1 Env of isolate MGRM-C-025 (HIV-1)
[21] = target: HIV-1 Env of isolate MGRM-C-027 (HIV-1)
[22] = target: HIV-1 Env of isolate MGRM-Chronic-B-008 (HIV-1)
[23] = target: HIV-1 Env of isolate MGRM-D-001 (HIV-1)
[24] = target: HIV-1 Env of isolate MGRM-F1-006 (subtype F), on pseudovirus (HIV-1)
[25] = target: HIV-1 Env of isolate MGRM-F1-013 (subtype F), on pseudovirus (HIV-1)
[26] = target: HIV-1 Env of isolate MGRM-F1-014 (subtype F), on pseudovirus (HIV-1)
[27] = target: HIV-1 Env of isolate MGRM-F1-015 (subtype F), on pseudovirus (HIV-1)
[28] = target: HIV-1 Env of isolate VLGCB3 (HIV-1)
[29] = target: HIV-1 JR-CSF Env I165A (HIV-1 (isolate JR-CSF)) (UniProt P20871)
[30] = target: HIV-1 JR-CSF Env N188A (HIV-1 (isolate JR-CSF)) (UniProt P20871)
[31] = target: HIV-1 JRCSF envelope glycoprotein (Env) on pseudovirus (HIV-1) (UniProt P20871)
[32] = target: HIV-1 MGRM-C-028 envelope glycoprotein (Env) on pseudovirus (HIV-1)

1443_C16 (PG16) (TCN-116) (antibody), sequence (VH): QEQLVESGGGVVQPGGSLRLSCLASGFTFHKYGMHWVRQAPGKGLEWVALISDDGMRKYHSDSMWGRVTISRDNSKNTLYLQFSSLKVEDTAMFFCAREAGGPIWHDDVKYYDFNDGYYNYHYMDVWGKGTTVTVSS
1443_C16 (PG16) (TCN-116) (antibody), sequence (VL): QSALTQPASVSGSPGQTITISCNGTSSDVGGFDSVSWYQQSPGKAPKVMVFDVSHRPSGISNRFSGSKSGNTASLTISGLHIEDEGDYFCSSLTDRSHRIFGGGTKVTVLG

| Substance | IC90 (pseudovirus neutralization) [1] | IC50 (µg/ml), pseudovirus neutralization [2] | IC50 (µg/ml), pseudovirus neutralization [3] | IC50 (µg/ml), pseudovirus neutralization [4] | IC50 (µg/ml), pseudovirus neutralization [5] | IC50 (µg/ml), pseudovirus neutralization [6] | IC50 (µg/ml), pseudovirus neutralization [7] | IC50 (µg/ml), pseudovirus neutralization [8] | IC50 (µg/ml), pseudovirus neutralization [9] | IC50 (µg/ml), pseudovirus neutralization [10] | IC50 [11] | IC50 (µg/ml), pseudovirus neutralization [12] | IC50 [13] | IC50 [14] | IC50 [15] | IC50 (µg/ml), pseudovirus neutralization [16] | neutralization IC50 [17] | IC50 (µg/mL) neutralization [18] | IC50, single-round pseudovirus neutralization [19] | IC50 [20] | further results |
| --- | --- | --- | --- | --- | --- | --- | --- | --- | --- | --- | --- | --- | --- | --- | --- | --- | --- | --- | --- | --- | --- |
| b12 (antibody) | > 50 µg/mL | > 50 µg/mL | > 50 µg/mL | 5.23 µg/mL | 1.55 µg/mL | > 50 µg/mL | > 50 µg/mL | 2.82 µg/mL | 3.62 µg/mL | 0.15 µg/mL | 0.94 µg/mL | > 50 µg/mL | > 50 µg/mL | > 50 µg/mL | > 50 µg/mL | > 50 µg/mL | 0.06 µg/mL |  |  |  |  |
| 5136_H01 (PGT-131) (antibody) |  |  |  |  |  |  |  |  |  |  |  |  |  |  |  |  |  | 0.189 µg/mL | > 50 µg/mL | > 50 µg/mL | IC50 [21]: 0.065 µg/mL; IC50 [22]: > 50 µg/mL; IC50 [23]: > 50 µg/mL; IC50, pseudovirus neutralization [24]: > 50 µg/mL; IC50, pseudovirus neutralization [25]: > 50 µg/mL; IC50, pseudovirus neutralization [26]: > 50 µg/mL; IC50, pseudovirus neutralization [27]: > 50 µg/mL; IC50 [28]: > 50 µg/mL; Fold IC50 increase relative to wild-type [29]: 2.4 fold; Fold IC50 increase relative to wild-type [30]: 0.9 fold |
| 4E10 (antibody) | > 50 µg/mL | 9.72 µg/mL | 0.34 µg/mL | 13.3 µg/mL | 2.95 µg/mL | 1.02 µg/mL | 3.5 µg/mL | 16.7 µg/mL | 4.68 µg/mL | 5.76 µg/mL | 2.85 µg/mL | 15.1 µg/mL | 2.48 µg/mL | 2.8 µg/mL | 5.71 µg/mL | 0.37 µg/mL | 4.95 µg/mL |  |  |  |  |
| 5343_B08 (PGT-135) (antibody) |  |  |  |  |  |  |  |  |  |  |  |  |  |  |  |  |  | 0.716 µg/mL | > 50 µg/mL | > 50 µg/mL | IC50 [21]: > 50 µg/mL; IC50 [22]: > 50 µg/mL; IC50 [23]: > 50 µg/mL; IC50, pseudovirus neutralization [24]: > 50 µg/mL; IC50, pseudovirus neutralization [25]: 21.1 µg/mL; IC50, pseudovirus neutralization [26]: > 50 µg/mL; IC50, pseudovirus neutralization [27]: 1.11 µg/mL; IC50 [28]: 0.142 µg/mL; Fold IC50 increase relative to wild-type [29]: 4 fold; Fold IC50 increase relative to wild-type [30]: 0.4 fold |
| 2F5 (antibody) | > 50 µg/mL | > 50 µg/mL | 0.24 µg/mL | > 50 µg/mL | 4.37 µg/mL | 16.8 µg/mL | 1 µg/mL | > 50 µg/mL | > 50 µg/mL | > 50 µg/mL | > 50 µg/mL | > 50 µg/mL | > 50 µg/mL | > 50 µg/mL | > 50 µg/mL | > 50 µg/mL | 2.41 µg/mL |  |  |  |  |
| 5147_N06 (PGT-130) (antibody) |  |  |  |  |  |  |  |  |  |  |  |  |  |  |  |  |  | 0.052 µg/mL | > 50 µg/mL | > 50 µg/mL | IC50 (ug/ml), neutralizing activity [1]: 0.474 µg/mL; IC50 [21]: 0.008 µg/mL; IC50 [22]: 5.18 µg/mL; IC50 [23]: > 50 µg/mL; IC50, pseudovirus neutralization [24]: > 50 µg/mL; IC50, pseudovirus neutralization [25]: > 50 µg/mL; IC50, pseudovirus neutralization [26]: 11.8 µg/mL; IC50, pseudovirus neutralization [27]: > 50 µg/mL; IC50 [28]: 4.6 µg/mL; Fold IC50 increase relative to wild-type [29]: 3.2 fold; Fold IC50 increase relative to wild-type [30]: 1 fold; IC50 (ug/ml), neutralizing activity [31]: 0.0089 µg/mL; IC50 (ug/ml), neutralizing activity [32]: > 10 µg/mL |
| 1495_C14 (PGC14) (antibody) |  | > 50 µg/mL | > 50 µg/mL | > 50 µg/mL | > 50 µg/mL | > 50 µg/mL | > 50 µg/mL | > 50 µg/mL | > 50 µg/mL | 21 µg/mL | 12 µg/mL | > 50 µg/mL | > 50 µg/mL | > 50 µg/mL | > 50 µg/mL | > 50 µg/mL | 0.373 µg/mL |  |  |  |  |
| 1443_C16 (PG16) (TCN-116) (antibody) | > 50 µg/mL | > 50 µg/mL | 0.03 µg/mL | > 50 µg/mL | > 50 µg/mL | 11.3 µg/mL | 0.19 µg/mL | 0.73 µg/mL | 1.34 µg/mL | 0.4 µg/mL | 9.55 µg/mL | > 50 µg/mL | > 50 µg/mL | > 50 µg/mL | 0.25 µg/mL | 0.003 µg/mL | < 0.0025 µg/mL |  |  |  |  |
| 2G12 (antibody) | > 50 µg/mL | 13.9 µg/mL | > 50 µg/mL | 23 µg/mL | > 50 µg/mL | > 50 µg/mL | 0.06 µg/mL | 0.55 µg/mL | > 50 µg/mL | 7.9 µg/mL | > 50 µg/mL | > 50 µg/mL | > 50 µg/mL | 18.6 µg/mL | > 50 µg/mL | 1.81 µg/mL | 0.75 µg/mL |  |  |  |  |
